# Results from article PMC6355928.
# Biological target: Rheb (UniProt Q15382)
# Assay: co-immunoprecipitation, Western blot
# Conditions: reference: USP4 wild type; sites S445
substance,measurement,value
USP4 (from UniProt Q13107) USP4-S445A,binding against the reference,weaker
